From publication PMC7594083, “Preclinical Evaluation of the GRPR-Targeting Antagonist RM26 Conjugated to the Albumin-Binding Domain for GRPR-Targeting Therapy of Cancer” (Pharmaceutics, 2020)

Tests used:
[1] = In vivo targeting specificity in mice bearing PC-3 xenografts; conditions: female, BALB/c nu/nu, mouse, iv, total radioactivity, 40 pmol i.v., 72 h pi, 4 mice, SD, read-out: tumor activity uptake, non-blocked
Protocol: The activity content was measured using a 2840 automated gamma counter Wizard^2TM (PerkinElmer, Waltham, MA, USA). Instant thin-layer chromatography (ITLC) results were analyzed using Cyclone® Plus (PerkinElmer). Statistical analyses were performed by unpaired, two-tailed t-tests using GraphPad Prism 8 for Windows (GraphPad Software, San Diego, CA, USA); p values below 0.05 were considered significant.
BALB/c nu/nu female mice were implanted subcutaneously with PC-3 cells in PBS (6.5 × 10^6 cells/mouse) on the hind leg. Tumor size was 0.4 ± 0.2 g at the time of the experiment (2−3 weeks following implantations). A group of four mice was used per data point.
The mice were euthanized at 72 h post injection (pi).

[2] = Biodistribution in mice bearing PC-3 xenografts; assay type: in vivo, mice (BALB/c nu/nu female); conditions: female, BALB/c nu/nu, mouse, in vivo, iv, 40 pmol, total radioactivity
Protocol: (§1) Instant thin-layer chromatography (ITLC) results were analyzed using Cyclone® Plus (PerkinElmer). […] BALB/c nu/nu female mice were implanted subcutaneously with PC-3 cells in PBS (6.5 × 10^6 cells/mouse) on the hind leg. […] A group of four mice was used per data point. […] After euthanization, the organs of interest were collected and weighed, and the radioactivity content was measured on a gamma counter.

PC-3 xenografts = test: Biodistribution in mice bearing PC-3 xenografts; assay type: in vivo, mice (BALB/c nu/nu female); conditions: mouse, in vivo
Protocol: as §1

[3] = cited from earlier work
From the text: However, as a consequence of the low amplitude for the melting curve of DOTA-ABD-RM26, the melting temperature can only be roughly estimated for this conjugate.

GRPR [4] = biological target: T1, GRPR (Homo sapiens, UniProt P30550); conditions: in vivo; cited from earlier work
T1 sequence (P30550 whole entry): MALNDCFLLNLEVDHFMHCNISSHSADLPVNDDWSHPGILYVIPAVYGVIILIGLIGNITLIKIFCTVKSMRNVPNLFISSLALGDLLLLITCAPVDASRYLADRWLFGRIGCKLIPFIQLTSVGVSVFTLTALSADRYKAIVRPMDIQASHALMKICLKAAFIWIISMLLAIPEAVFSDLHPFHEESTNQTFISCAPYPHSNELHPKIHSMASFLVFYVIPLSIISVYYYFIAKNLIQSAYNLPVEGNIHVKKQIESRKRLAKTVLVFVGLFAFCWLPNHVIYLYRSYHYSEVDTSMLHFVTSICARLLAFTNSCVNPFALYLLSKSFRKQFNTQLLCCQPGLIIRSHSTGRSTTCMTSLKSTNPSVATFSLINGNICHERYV

GRPR [5] = biological target: T1, GRPR; conditions: cited from earlier work

In the case of `CC[C@H](C)[C@H](NC(=O)[C@H](Cc1c[nH]cn1)NC(=O)[C@H](CC(C)C)NC(=O)[C@H](CCCCN)NC(=O)[C@H](CC(C)C)NC(=O)[C@H](C)NC(=O)[C@H](CCC(=O)O)NC(=O)[C@@H](NC(=O)CNC(=O)[C@H](CCC(=O)O)NC(=O)[C@@H](NC(=O)[C@@H](NC(=O)[C@H](CCCCN)NC(=O)[C@H](C)NC(=O)[C@H](CCCCN)NC(=O)[C@H](CC(N)=O)NC(=O)[C@@H](NC(=O)[C@H](CC(C)C)NC(=O)[C@H](CCCNC(=N)N)NC(=O)[C@H](CCCCN)NC(=O)[C@H](Cc1ccc(O)cc1)NC(=O)[C@H](Cc1ccccc1)NC(=O)[C@H](CC(=O)O)NC(=O)[C@H](CO)NC(=O)[C@@H](NC(=O)CNC(=O)[C@H](Cc1ccc(O)cc1)NC(=O)[C@H](CCCCNC(=O)CSCCC(=O)NCCOCCOCCOCCOCCC(=O)N[C@H](Cc1ccccc1)C(=O)N[C@@H](CCC(N)=O)C(=O)N[C@@H](Cc1c[nH]c2ccccc12)C(=O)N[C@@H](C)C(=O)N[C@H](C(=O)NCC(=O)N[C@@H](Cc1c[nH]cn1)C(=O)N[C@@H](CC(C)C)[C@@H](O)CC(=O)N[C@@H](CC(C)C)C(N)=O)C(C)C)NC(=O)[C@H](CC(=O)O)NC(=O)[C@H](CC(C)C)NC(=O)[C@H](CCC(=O)O)NC(=O)[C@H](CCCNC(=N)N)NC(=O)[C@H](CC(N)=O)NC(=O)[C@H](C)NC(=O)[C@H](CC(C)C)NC(=O)[C@@H](NC(=O)[C@H](CCCCN)NC(=O)[C@H](C)NC(=O)[C@H](CCC(=O)O)NC(=O)[C@H](C)NC(=O)[C@H](CC(C)C)NC(=O)CN1CCN(CC(=O)O)CCN(CC(=O)O)CCN(CC(=O)O)CC1)C(C)C)C(C)C)[C@@H](C)CC)[C@@H](C)O)C(C)C)C(C)C)C(=O)N[C@@H](CC(C)C)C(=O)N[C@@H](C)C(=O)N[C@@H](C)C(=O)N[C@@H](CC(C)C)C(=O)N1CCC[C@H]1C(N)=O` [[^111In]In-DOTA-ABD-RM26, metal not drawn], the tissue uptake at 72 h [1] is reported as 10 ± 1 %ID/g, the tissue uptake at 1 h ([2]; activity concentration in blood 1 h pi) is reported as 32 ± 4 %ID/g and the tissue uptake at 1 h ([2]; bone uptake 1 h pi) is reported as 3.3 ± 0.4 %ID/g. It also gave a tissue uptake at 24 h ([2]; bone uptake 24 h pi) of 4.4 ± 0.5 %ID/g, a tissue uptake at 1 h ([2]; kidney uptake 1 h pi) of 35 ± 6 %ID/g and a tissue uptake at 1 h ([2]; tumor activity uptake 1 h pi) of 7 ± 2 %ID/g. For the same compound, the tissue uptake at 24 h ([2]; tumor activity uptake 24 h pi) was 11 ± 2 %ID/g, the tissue uptake at 144 h ([2]; tumor activity uptake 144 h pi) was 10 ± 1 %ID/g and the “activity uptake in other organs at 24 h pi” value (PC-3 xenografts) was “activity uptake remained stable in the majority of the other studied organs”.

In the case of bombesin, the “secondary structure upon interaction with lipids and membranes” value [3] is listed as “form alpha-helical structures”.

In the case of “Mercaptopropionyl-[PEG4]-D-Phe-Gln-Trp-Ala-Val-Gly-His-Sta-Leu-NH2 [RM26]”, the renal reabsorption (GRPR [4]) is listed as “low renal reabsorption” and the pharmacokinetics (GRPR [5]) is listed as “favorable pharmacokinetics”.
